In publication PMC5027247 (2016):
Like-named read-outs stand apart in the source and are kept apart here.

T1: TBK1 CTD(E696K) (human, UniProt Q9UHD2 677-729, E696K)
T1 sequence: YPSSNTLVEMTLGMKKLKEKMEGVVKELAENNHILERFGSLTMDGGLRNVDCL

T2: TBK1 CTD V700Q (human, UniProt Q9UHD2 677-729, V700Q)
T2 sequence: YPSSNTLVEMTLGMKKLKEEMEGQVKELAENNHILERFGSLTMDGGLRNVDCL


Legend:
Assay in all cases: ITC
OPTN(26–119) E50K [1] = target: T3, OPTN(26–119) E50K (human, UniProt Q96CV9 26-119, E50K)
OPTN(26–119) E50K [2] = target: T3, OPTN(26–119) E50K; remark: listed apart in the source
Target sequence in this assay (Q96CV9 26-119 E50K): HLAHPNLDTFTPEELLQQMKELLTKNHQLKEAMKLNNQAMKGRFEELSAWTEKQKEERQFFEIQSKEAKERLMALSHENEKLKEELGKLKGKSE

TBK1 CTD(E696K) [3] = target: T1, TBK1 CTD(E696K)
TBK1 CTD V700Q [4] = target: T2, TBK1 CTD V700Q
TBK1 CTD(E696K) [5] = target: T1, TBK1 CTD(E696K); remark: listed apart in the source
TBK1 CTD V700Q [6] = target: T2, TBK1 CTD V700Q; remark: listed apart in the source

Kd (OPTN(26–119) E50K [1]) [nM] | Kd (OPTN(26–119) E50K [2]) [nM] | Kd (TBK1 CTD(E696K) [3]) [nM] | Kd (TBK1 CTD V700Q [4]) [nM] | Kd (TBK1 CTD(E696K) [5]) [nM] | Kd (TBK1 CTD V700Q [6]) [nM] | Binder
100 | 100 | – | – | – | – | TBK1 CTD (residues 677–729) (domain or fragment) YPSSNTLVEMTLGMKKLKEEMEGVVKELAENNHILERFGSLTMDGGLRNVDCL
– | – | 660 | 6060 | 660 | 6060 | SSDNMQHAYWELKREMSNLHLVTQVQAELLRKLKTSTAIK (domain or fragment) [NAP1 TBD (residues 215–254)]
